Where two headings read alike, the source gives them in different places.
What was measured:
[1] = biological target: membrane-bound immunoglobulin heavy mu chain (B-cell receptor, IgM) on Ramos lymphoma cells (Homo sapiens) (UniProt P01871); conditions: confocal staining of Ramos xenograft brain slices, 1.0 uM, 10 min on ice, 6 mM MgCl2, 1.2 mM CaCl2, PBS, yeast tRNA; U251 glioma 0.81% and normal brain 0.80% …
[2] = biological target: membrane-bound immunoglobulin heavy mu chain (B-cell receptor, IgM) on Ramos lymphoma cells (Homo sapiens) (UniProt P01871); conditions: confocal staining of Ramos xenograft brain slices, 1.0 uM, 10 min; target not purified

Chain of UniProt P01871 (P01871 1-450): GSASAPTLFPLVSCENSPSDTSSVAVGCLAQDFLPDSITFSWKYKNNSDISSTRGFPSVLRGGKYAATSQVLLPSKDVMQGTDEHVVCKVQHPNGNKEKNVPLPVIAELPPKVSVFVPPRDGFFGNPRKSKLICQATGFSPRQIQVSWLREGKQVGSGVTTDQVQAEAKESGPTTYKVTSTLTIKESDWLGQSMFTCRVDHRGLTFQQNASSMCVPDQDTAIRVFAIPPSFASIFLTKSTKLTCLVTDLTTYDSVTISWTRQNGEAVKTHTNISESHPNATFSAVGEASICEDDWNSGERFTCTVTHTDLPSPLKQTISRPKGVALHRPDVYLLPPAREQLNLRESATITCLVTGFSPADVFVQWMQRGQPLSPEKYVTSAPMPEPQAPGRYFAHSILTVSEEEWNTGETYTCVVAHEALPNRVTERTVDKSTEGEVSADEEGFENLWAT

Substance | binding (% cells labeled) [1] | binding (% cells labeled) [2]
AGGAGGATAGTTCGGTGGCTGTTCAGGGTCTCCTCCT [TD05-488] | 76.7 | 
nonspecific Alexa Fluor 488 aptamer |  | 2.71
